Test results: IntAct's records for PubMed 31515488

B1: X antigen family member 3 (Homo sapiens), Q8WTP9 (parent)
chain: MIWRGRSTYRPRPRRSVPPPELIGPMLEPGDEEPQQEEPPTESRDPAPGQEREEDQGAAETQVPDLEADLQELSQSKTGGECGNGPDDQGKILPKSEQFKMPEGGDRQPQV
partner: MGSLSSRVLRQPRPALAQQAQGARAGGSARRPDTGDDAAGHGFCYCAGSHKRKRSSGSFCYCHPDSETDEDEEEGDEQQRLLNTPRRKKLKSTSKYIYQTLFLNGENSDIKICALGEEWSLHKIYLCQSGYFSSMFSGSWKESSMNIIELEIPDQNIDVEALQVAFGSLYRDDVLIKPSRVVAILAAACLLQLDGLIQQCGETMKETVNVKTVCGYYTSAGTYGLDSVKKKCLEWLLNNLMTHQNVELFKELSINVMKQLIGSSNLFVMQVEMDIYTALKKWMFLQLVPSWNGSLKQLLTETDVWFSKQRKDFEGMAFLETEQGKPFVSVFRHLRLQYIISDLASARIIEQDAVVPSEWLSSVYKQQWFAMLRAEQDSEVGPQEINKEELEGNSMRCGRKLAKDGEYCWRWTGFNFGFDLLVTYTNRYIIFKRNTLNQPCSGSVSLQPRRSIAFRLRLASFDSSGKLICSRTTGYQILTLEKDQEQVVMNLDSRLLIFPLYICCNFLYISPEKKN
B2: Adenosylhomocysteinase (Homo sapiens), P23526 (parent)
chain: MSDKLPYKVADIGLAAWGRKALDIAENEMPGLMRMRERYSASKPLKGARIAGCLHMTVETAVLIETLVTLGAEVQWSSCNIFSTQDHAAAAIAKAGIPVYAWKGETDEEYLWCIEQTLYFKDGPLNMILDDGGDLTNLIHTKYPQLLPGIRGISEETTTGVHNLYKMMANGILKVPAINVNDSVTKSKFDNLYGCRESLIDGIKRATDVMIAGKVAVVAGYGDVGKGCAQALRGFGARVIITEIDPINALQAAMEGYEVTTMDEACQEGNIFVTTTGCIDIILGRHFEQMKDDAIVCNIGHFDVEIDVKWLNENAVEKVNIKPQVDRYRLKNGRRIILLAEGRLVNLGCAMGHPSFVMSNSFTNQVMAQIELWTHPDKYPVGVHFLPKKLDEAVAEAHLGKLNVKLTKLTEKQAQYLGMSCDGPFKPDHYRY
B3: Protein Tob1 (Homo sapiens), P50616 (parent)
chain: MQLEIQVALNFIISYLYNKLPRRRVNIFGEELERLLKKKYEGHWYPEKPYKGSGFRCIHIGEKVDPVIEQASKESGLDIDDVRGNLPQDLSVWIDPFEVSYQIGEKGPVKVLYVDDNNENGCELDKEIKNSFNPEAQVFMPISDPASSVSSSPSPPFGHSAAVSPTFMPRSTQPLTFTTATFAATKFGSTKMKNSGRSNKVARTSPINLGLNVNDLLKQKAISSSMHSLYGLGLGSQQQPQQQQQPAQPPPPPPPPQQQQQQKTSALSPNAKEFIFPNMQGQGSSTNGMFPGDSPLNLSPLQYSNAFDVFAAYGGLNEKSFVDGLNFSLNNMQYSNQQFQPVMAN
B4: MIF4G domain-containing protein (Homo sapiens), A9UHW6 (parent)
chain: MGEPSREEYKIQSFDAETQQLLKTALKDPGAVDLEKVANVIVDHSLQDCVFSKEAGRMCYAIIQAESKQAGQSVFRRGLLNRLQQEYQAREQLRARSLQGWVCYVTFICNIFDYLRVNNMPMMALVNPVYDCLFRLAQPDSLSKEEEVDCLVLQLHRVGEQLEKMNGQRMDELFVLIRDGFLLPTGLSSLAQLLLLEIIEFRAAGWKTTPAAHKYYYSEVSD
partner: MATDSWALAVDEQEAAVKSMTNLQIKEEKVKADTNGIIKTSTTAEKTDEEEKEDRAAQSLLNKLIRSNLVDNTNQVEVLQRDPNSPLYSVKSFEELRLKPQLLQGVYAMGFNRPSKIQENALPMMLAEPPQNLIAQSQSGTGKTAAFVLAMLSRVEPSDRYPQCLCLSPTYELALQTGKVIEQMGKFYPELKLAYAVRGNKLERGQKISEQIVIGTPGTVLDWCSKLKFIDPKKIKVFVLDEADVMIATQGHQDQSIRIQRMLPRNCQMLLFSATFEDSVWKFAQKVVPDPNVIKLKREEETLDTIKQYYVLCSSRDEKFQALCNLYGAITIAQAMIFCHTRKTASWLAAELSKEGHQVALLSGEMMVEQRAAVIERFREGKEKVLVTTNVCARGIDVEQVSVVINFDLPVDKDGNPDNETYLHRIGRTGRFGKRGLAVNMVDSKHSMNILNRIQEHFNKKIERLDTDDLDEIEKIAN
B5: Kinetochore protein NDC80 homolog (Homo sapiens), O14777 (parent)
chain: MKRSSVSSGGAGRLSMQELRSQDVNKQGLYTPQTKEKPTFGKLSINKPTSERKVSLFGKRTSGHGSRNSQLGIFSSSEKIKDPRPLNDKAFIQQCIRQLCEFLTENGYAHNVSMKSLQAPSVKDFLKIFTFLYGFLCPSYELPDTKFEEEVPRIFKDLGYPFALSKSSMYTVGAPHTWPHIVAALVWLIDCIKIHTAMKESSPLFDDGQPWGEETEDGIMHNKLFLDYTIKCYESFMSGADSFDEMNAELQSKLKDLFNVDAFKLESLEAKNRALNEQIARLEQEREKEPNRLESLRKLKASLQGDVQKYQAYMSNLESHSAILDQKLNGLNEEIARVELECETIKQENTRLQNIIDNQKYSVADIERINHERNELQQTINKLTKDLEAEQQKLWNEELKYARGKEAIETQLAEYHKLARKLKLIPKGAENSKGYDFEIKFNPEAGANCLVKYRAQVYVPLKELLNETEEEINKALNKKMGLEDTLEQLNAMITESKRSVRTLKEEVQKLDDLYQQKIKEAEEEDEKCASELESLEKHKHLLESTVNQGLSEAMNELDAVQREYQLVVQTTTEERRKVGNNLQRLLEMVATHVGSVEKHLEEQIAKVDREYEECMSEDLSENIKEIRDKYEKKATLIKSSEE
partner: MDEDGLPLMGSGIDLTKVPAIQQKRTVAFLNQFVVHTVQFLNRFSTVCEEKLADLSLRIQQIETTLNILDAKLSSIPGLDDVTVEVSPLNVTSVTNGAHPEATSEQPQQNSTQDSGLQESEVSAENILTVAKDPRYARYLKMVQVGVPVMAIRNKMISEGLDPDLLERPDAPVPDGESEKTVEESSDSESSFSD

Variants of: B1
Conditions: with gmcl1_human GMCL1, Q96IK5

effect of a mutation on the interaction	Variant
with no effect	I92F

Variants of: B2
Conditions: with ca050_human C1orf50, Q9BV19
Chain of ca050_human C1orf50, Q9BV19 (Q9BV19 whole entry): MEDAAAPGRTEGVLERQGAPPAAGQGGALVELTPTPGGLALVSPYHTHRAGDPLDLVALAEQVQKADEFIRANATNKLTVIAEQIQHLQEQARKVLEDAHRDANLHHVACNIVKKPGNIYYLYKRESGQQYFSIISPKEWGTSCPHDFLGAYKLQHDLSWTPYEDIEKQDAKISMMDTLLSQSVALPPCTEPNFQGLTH

effect of a mutation on the interaction	Variant
with no effect	I92V

Variants of: B3
Conditions: with cnot7_human CNOT7, Q9UIV1
Chain of cnot7_human CNOT7, Q9UIV1 (Q9UIV1 whole entry): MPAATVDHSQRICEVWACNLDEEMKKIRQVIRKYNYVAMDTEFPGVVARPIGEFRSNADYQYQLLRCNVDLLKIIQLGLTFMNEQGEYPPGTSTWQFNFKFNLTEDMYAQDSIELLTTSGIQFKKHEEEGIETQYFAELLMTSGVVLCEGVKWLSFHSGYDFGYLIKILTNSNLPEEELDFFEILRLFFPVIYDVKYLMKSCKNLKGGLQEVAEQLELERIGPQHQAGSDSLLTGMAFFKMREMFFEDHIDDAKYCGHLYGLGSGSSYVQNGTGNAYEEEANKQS

effect of a mutation on the interaction	Variant
with no effect	Y50N

Variants of: B4
Conditions: with dd19a_human DDX19A

effect of a mutation on the interaction	Variant
with no effect	E160K

Variants of: B5
Conditions: with wasc3_human WASHC3, Q9Y3C0

effect of a mutation on the interaction	Variant
with no effect	A605P
with no effect	E348D
